The nature of the data set: soluble on expression in E. coli; label from the status in PepcDB or PDB records.
With “MDPVFSRLLETANSVILGKEQPIRLCICCLLARGHLLIEDVPGVGKTTLARTLAALLGLKYQRIQFTSDLLPADVLGSSIYDATTHGFRFHPGPVFNPMVLADEINRSTPRAQSALLEAMEERQVTVEGETRPLPEPFFVIATQNPNTQIGTFPLPESQLDRFLMRIELGYPDPRAERELLMGEERYALLPQLPVCLPAERLLALQSRVRDVHASSALLDYVQALLHFSRESPLYQNGLSPRAGLALLHAAKAWALMDGRAAVLPEDIQAVLPPVAGHRLKLASGGGGMAETVAPLLRDVAIPLEHHHHHH”, the “soluble on expression in E. coli” value is on record as “not soluble”. Consider “MQQIFFKDPILGEVLFDQQTKWMYELVETEAFRRLRNIKQLGINFHFYPGGVHTRYSHSLGVYELLRRILNTPAFAPIDENKKQTVLVAGLLHDIGHAPHSHAFEIYFAKAPNFKKELFIHEEVTTLFVNSEPIKSILKANQIDPKLVAALIDENKELKPSNYWMRQLISSDLDADRMDYLLRDSYFTGTSHSLIDYQTIIKEMDCVKVKGIYEIFFKDKCLPLIENFLITRHHMYQSIYSDGRSISTELNLWFVFQRIKDLVDKNQFDFNGYKTLEQVCLPLLKNEHFDKKMLPAFVKLDDYVFQSFFVNLYQTTKDKILKKLLDSYLNSLKFEIKFYETKEQRDLDFEKQASKYKDAKYFITKFNNQFKGFYEGWSSHKNELKIKTMQNKHTNLSEISMLVKRSNELFFENALYKWANVFYRL”, for which the “soluble on expression in E. coli” value was “soluble”. With “MGSDKIHHHHHHMSQQASLPDDDNWLLEDTDGDEAGRPSEVRKPWKVLIVDDEKDVHTATRIALRGISYKERPLELLSAYSGAEAFQMLQQHADIALIMLDVVMESEDAGLRLVHRIREELDNGVVRIVLRTGQPGQAPEQEVILNYDINDYKTKTELTTQKLFTTTIASLRAYENLVSLEKNRQGLAKILESASDLYQLHSLREFASGVLRQISALLDIGTDGILCVRNDNLVGRPELEILAVSGAYEYLAESGDLSNEPHLAAVFQQVFKEKRSIYQHPYDVLYISSRNRREFAVHFMPQWPLDSVERDLLDVFCQRISAAYDNLYLYNQLRSAQEATVVALADLAEFRDTDTGDHVLRVQKLTDAIAEEMVSHNHYPELMTHEFMDMVGMASILHDIGKVATPDHILLKPGKLDPEERAIMEQHATIGAQILAKSAQLVEGASYLSLGSEIAGGHHEHFDGNGYPGKLQGQAIPLSARIVAVVDVFDALLNKRPYKEPWSMEDTMKYINGRSGTQFDPHVVAALSRLVSEDRLPVQFGD” the entry was “not soluble”. Regarding “MRGSHHHHHHGSMGKGITGFDPSLYSYLQSISADDSFYLAQLRRETAHLPGAPMQISPEQAQFLGLLISLTGAKQVLEIGVFRGYSALAMALQLPPDGQIIACDQDPNATAIAKKYWQKAGVAEKISLRLGPALATLEQLTQGKPLPEFDLIFIDADKRNYPRYYEIGLNLLRRGGLMVIDNVLWHGKVTEVDPQEAQTQVLQQFNRDLAQDERVRISVIPLGDGMTLALKK”, the “soluble on expression in E. coli” value was “soluble”. Take “MGSDKIHHHHHHMAKKAKVQFECQSCGYVSPKYLGRCPNCGQWNSMVEEVIQDTSDRRARVSLTGKKTQPQRLSEVIPKKEPRVKTELVELNRVLGGGVVPGSLVLIGGDPGIGKSTLLLQVSQQLAATGGTVLYVSGEESAEQIKLRAERLGTVNETFYLYAETDMHEISRAIEKLEPDYVIIDSIQTMTQPDVTSVAGSVSQVRETTAELLKLAKTNGIAIFIVGHVTKEGSIAGPRMLEHMVDTVLYFEGDKHHTFRILRAVKNRFGSTNEIGIFEMQTHGLVEVMNPSQVFLEERLEGATGSSIVVAMEGSRPILVEIQALVTPTMFGNAKRTTTGLDFNRVSLIMAVLEKRAGLLLQNQDAYLKAAGGVKINEPAIDLALAISIASSYKEKGTSSSECFIGEIGLTGEIRRVNSIEQRVREAQKLGFTKVYVPKNNLGGWEAPEGIEIIGVSTIGETLRKVFK”: the “soluble on expression in E. coli” value is “not soluble”. Take “MNLVTDQDLLDVVNFFNRPLHALIAEVSKTTSDLELVRSTTQGIENICLLLDLVGTECIKDASAAKTSVLEHHHHHH”: the “soluble on expression in E. coli” value was “not soluble”. For the sequence “MHHHHHHHHHGGPISKILVANRSEIAIRVFRAANELGIKTVAIWAEEDKLALHRFKADESYQVGRGPHLARDLGPIESYLSIDEVIRVAKLSGADAIHPGYGLLSESPEFVDACNKAGIIFIGPKADTMRQLGNKVAARNLAISVGVPVVPATEPLPDDMAEVAKMAAAIGYPVMLKASWGGGGRGMRVIRSEADLAKEVTEAKREAMAAFGKDEVYLEKLVERARHVESQILGDTHGNVVHLFERDCSVQRRNQKVVERAPAPYLSEAQRQELAAYSLKIAGATNYIGAGTVEYLMDADTGKFYFIEVNPRIQVEHTVTEVVTGIDIVKAQIHILDGAAIGTPQSGVPNQEDIRLNGHALQCRVTTEDPEHNFIPDYGRITAYRSASGFGIRLDGGTSYSGAIITRYYDPLLVKVTAWAPNPLEAISRMDRALREFRIRGVATNLTFLEAIIGHPKFRDNSYTTRFIDTTPELFQQVKRQDRATKLLTYLADVTVNGHPEAKDRPKPLENAARPVVPYANGNGVKDGTKQLLDTLGPKKFGEWMRNEKRVLLTDTTMRDGHQSLLATRMRTYDIARIAGTYSHALPNLLSLECWGGATFDVSMRFLTEDPWERLALIREGAPNLLLQMLLRGANGVGYTNYPDNVVKYFVRQAAKGGIDLFRVFDCLNWVENMRVSMDAIAEENKLCEAAICYTGDILNSARPKYDLKYYTNLAVELEKAGAHIIAVKDMAGLLKPAAAKVLFKALREATGLPIHFHTHDTSGIAAATVLAAVEAGVDAVDAAMDALSGNTSQPCLGSIVEALSGSERDPGLDPAWIRRISFYWEAVRNQYAAFESDLKGPASEVYLHEMPGGQFTNLKEQARSLGLETRWHQVAQAYADANQMFGDIVKVTPSSKVVGDMALMMVSQDLTVADVVSPDREVSFPESVVSMLKGDLGQPPSGWPEALQKKALKGEKPYTVRPGSLLKEADLDAERKVIEKKLEREVSDFEFASYLMYPKVFTDFALASDTYGPVSVLPTPAYFYGLADGEELFADIEKGKTLVIVNQAVSATDSQGMVTVFFELNGQPRRIKVPDRAHGATGAAVRRKAEPGNAAHVGAPMPGVISRVFVSSGQAVNAGDVLVSIEAMKMETAIHAEKDGTIAEVLVKAGDQIDAKDLLAVYGG”, the “soluble on expression in E. coli” value is recorded as “soluble”. For the sequence “MGSDKIHHHHHHMTHFGVDLWDRFTTRIGEARETLRAAGAPTGLLDQAEGARYLSRIVRLGLEMYLEGGDPDFPSFVLPSHATAKLGGDNPDNLYLSATILGDRSYRLTGNIGSVHYLSIGSKANRYAIDGTMASTGELQKEAFRADANGDFTVIASVKRPEGDVAWLPLAPDSNILQVRQTFLNRARETPARFAIERISEGLAHPAPTDPLAIERRMMAAADFVVNATRMFASWTAMFMPYPNEMRDWGQDMFHKAGGDPAIFYVHGYWKLAPGERLLIETDVPECEHWNIQVDNWWMESMDYRYLPACINAGNAEREADGSVRIVLAADDPGERNWLTTHGHSEGHLLLRWVRAASHPIPKLTLLRD”, the “soluble on expression in E. coli” value is on record as “not soluble”. For the sequence “SESLVVCDVAEDLVEKLRKFRFRKETHNAAIIMKIDKDERLVVLDEELEGVSPDELKDELPERQPRFIVYSYKYQHDDGRVSYPLCFIFSSPVGCKPEQQMMYAGSKNKLVQTAELTKVFEIRNTEDLTEEWLREKLG”, the “soluble on expression in E. coli” value is reported as “soluble”. With “MFFSALKSFLSRYITVWRNVWAVRDQLKPPKRTAEEQAFLPAHLELTDTPVSAAPKWAARFIMAFALLALLWSWFGKIDIVAAASGKTVSGGRSKTIQPLETAVVKAVHVRDGQHVKQGETLAELEAVGTDSDVVQSEQALQAAQLSKLRYEAVLAALESRTVPHIDMAQARSLGLSDADVQSAQVLAQHQYQAWAAQDAQLQSALRGHQAELQSAKAQEQKLVSVGAIEQQKTADYRRLRADNFISEHAFLEQQSKSVSNWNDLESTRGQMRQIQAAIAQAEQNRVLNTQNLKRDTLDALRQANEQIDQYRGQTDKAKQRQQLMTIQSPADGTVQELATYTVGGVVQAAQKMMVIAPDDDKMDVEVLVLNKDIGFVEQGQDAVVKIESFPYTRYGYLTGKVKSVSHDAVSHEQLGLVYTAVVSLDKHTLNIDGKAVNLTAGMNVTAEIKTGKRRVLDYLLSPLQTKLDESFRER”, the “soluble on expression in E. coli” value is on record as “not soluble”. In the case of “MSDESANPSCISHLSIGTNDFPRARAFYDAVMAALGCKVILEYPGAVAYGKLYPEFWVQAPIDGRPASVGNGSHVGFFADSKAQVDAFHAAALAAGARDEGAPGPRPLYGEPYYGCFIRDLDGHKVEASYWDMSQGFDAHDHAH”, the “soluble on expression in E. coli” value is reported as “not soluble”.
